{
  "source": "paper PMC7255924",
  "target": "P1 adhesin (AgI/II, SpaP, PAc) A3VP1 polypeptide (UniProt P23504)",
  "assay": "ITC",
  "conditions": "pH 5; 25°C; 100 mM NaCl; pH 5: 10 mM MES; pH 6: 50 mM sodium phosphate",
  "data": [
    {"substance": "P1 adhesin (AgI/II, SpaP, PAc) C3 domain", "values": [
      {"measurement": "KD", "result": "35.2 ± 7.0", "unit": "µM"}
    ]}
  ]
}
